Numbering of substitutions follows the chain as printed. Names may count otherwise.
Tests used:
[1] = target: T1, Collinsella aerofaciens 7β-HSDH mutant [R64E], with His tag, SEQ ID NO:4 (Collinsella aerofaciens, UniProt A4ECA9, R64E); assay: Michaelis-Menten kinetics, purified 7β-HSDH [R64E]; details: in comparison with the wild type
T1 sequence (A4ECA9 with tags, fused parts or gaps R64E): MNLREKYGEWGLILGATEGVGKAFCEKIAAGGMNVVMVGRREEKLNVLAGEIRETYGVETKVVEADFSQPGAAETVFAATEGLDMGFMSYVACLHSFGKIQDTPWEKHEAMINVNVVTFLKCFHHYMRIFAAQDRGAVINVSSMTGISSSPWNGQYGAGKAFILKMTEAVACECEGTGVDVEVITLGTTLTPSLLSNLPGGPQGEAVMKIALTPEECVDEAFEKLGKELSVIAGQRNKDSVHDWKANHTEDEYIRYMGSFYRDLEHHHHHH
Source text: In this manner, all the enzymes have been isolated and characterized.
The His-tag allows for very simple purification of the HSDH protein since this sequence is bound with high specificity by specific chromatographic material (NTA (Ninitrilotriacetate)-modified support material, loaded with divalent nickel ions, for example “His Pur Ni-NTA” (Nimagen B. V., Nijmegen, The Netherlands)). To this end, the cell-free crude extract is applied to a dropping column comprising this material, which dropping column has previously been equilibrated with the disruption buffer (3 to 5 column volumes). Weakly binding protein was removed by washing with 3 to 5 column volumes of wash buffer (20 mM imidazole, 50 mM sodium phosphate, 300 mM NaCl, pH 8). […] The process was carried out at room temperature. The imidazole which was present was to be removed by buffer exchange.

[2] = target: Collinsella aerofaciens 7β-HSDH mutant [T17F] (Collinsella aerofaciens, UniProt A4ECA9, T17F); assay type: biochemical; details: in comparison with the wild type
[3] = target: T2, Collinsella aerofaciens 7β-HSDH dual mutant [G39S/R64E], with His tag, SEQ ID NO:6 (Collinsella aerofaciens, UniProt A4ECA9, G39S/R64E); assay: Michaelis-Menten kinetics, purified 7β-HSDH [G39S/R64E]
T2 sequence (A4ECA9 with tags, fused parts or gaps G39S/R64E): T1 sequence (A4ECA9 with tags, fused parts or gaps R64E) with G39S

[4] = target: T3, Collinsella aerofaciens 7β-HSDH mutant [G39S], with His tag, SEQ ID NO:5 (Collinsella aerofaciens, UniProt A4ECA9, G39S); assay: Michaelis-Menten kinetics, purified 7β-HSDH [G39S]; details: in comparison with the wild type
T3 sequence (A4ECA9 with tags, fused parts or gaps G39S): T1 sequence (A4ECA9 with tags, fused parts or gaps R64E) with G39S, E64R
Experimental: The kinetic parameter constants vmax and KM were determined with purified enzyme.

[5] = target: 7β-HSDH obtainable from Collinsella aerofaciens DSM 3979 (Collinsella aerofaciens, UniProt A4ECA9); details: cited from earlier work
[6] = tested on: Collinsella aerofaciens DSM 3979 (ATCC 25986) 7β-HSDH, wild type, SEQ ID NO:2; details: cited from earlier work
[7] = substrate: NC(=O)C1=CN([C@@H]2O[C@H](COP(=O)(O)OP(=O)(O)OC[C@H]3O[C@@H](n4cnc5c(N)ncnc54)[C@H](OP(=O)(O)O)[C@@H]3O)[C@@H](O)[C@H]2O)C=CC1; assay: purified protein, by the assay type; details: other: purified enzyme, 340 nm, 50 mM KPi pH 8.0, substrate DHCA / cofactor NADPH
[8] = substrate: C[C@H](CCC(=O)O)[C@H]1CC[C@H]2[C@@H]3C(=O)C[C@@H]4CC(=O)CC[C@]4(C)[C@H]3CC(=O)[C@]12C; assay: purified protein, by the assay type; details: other: purified enzyme, 340 nm, 50 mM KPi pH 8.0, substrate DHCA / cofactor NADPH
[9] = Photometric activity determination of 7β-HSDH and mutants (decrease in absorbance at 340 nm, DHCA reduction with NADPH); assay type: biochemical
Experimental: The activity of the 7β-HSDH and of the mutants was determined using a photometric assay, where the decrease in absorbance was measured at 340 nm over a period of 30 seconds.
The expression [R64E] in the first column of the table means that the arginine (R) in position 64 of the protein sequence had been replaced by glutamic acid (E) in the mutant in question. The respective amino acid is abbreviated using the international one-letter code. Analogously, [R64D] means that an aspartic acid has been introduced at this position.

[10] = Cofactor specificity of 7β-HSDH types (compilation of improvements); assay type: biochemical
[11] = Table 4, variants modified at position 64, 10 mM DHCA, NADPH, KPi pH 8.0
[12] = Table 10, dual mutant versus wild type
[13] = Table 9, variants modified at position 17

Sequence of 7β-HSDH obtainable from Collinsella aerofaciens DSM 3979 (A4ECA9 whole entry): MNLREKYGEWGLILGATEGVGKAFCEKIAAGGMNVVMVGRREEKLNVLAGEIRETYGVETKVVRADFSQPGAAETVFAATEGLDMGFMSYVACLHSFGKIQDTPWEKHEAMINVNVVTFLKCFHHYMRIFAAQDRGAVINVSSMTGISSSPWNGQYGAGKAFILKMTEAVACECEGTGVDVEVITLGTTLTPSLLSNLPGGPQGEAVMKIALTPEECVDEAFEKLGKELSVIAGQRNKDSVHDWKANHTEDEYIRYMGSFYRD
Sequence of Collinsella aerofaciens 7β-HSDH mutant [T17F] (A4ECA9 1-263 with tags or gaps T17F): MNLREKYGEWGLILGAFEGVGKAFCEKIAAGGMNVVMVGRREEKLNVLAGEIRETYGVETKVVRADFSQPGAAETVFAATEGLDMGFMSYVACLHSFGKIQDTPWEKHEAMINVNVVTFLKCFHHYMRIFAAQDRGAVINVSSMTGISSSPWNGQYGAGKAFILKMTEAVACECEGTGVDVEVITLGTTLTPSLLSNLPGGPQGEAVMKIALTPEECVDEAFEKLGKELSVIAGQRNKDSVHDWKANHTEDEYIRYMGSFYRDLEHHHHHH

In the case of C[C@H](CCC(=O)O)[C@H]1CC[C@H]2[C@@H]3C(=O)C[C@@H]4CC(=O)CC[C@]4(C)[C@H]3CC(=O)[C@]12C [DHCA, dehydrocholic acid], the “Vmax (DHCA), improvement” value [1] is reported as “+5-fold better”, the “Substrate inhibition Ki” value ([1]; in words) is reported as “+reduced” and the “Vmax (DHCA), improvement” value [2] is reported as “+5-fold better”. The “Vmax (DHCA), improvement” value ([3]; in comparison with the wild type) was “+7-fold better”, the substrate inhibition ([3]; in words, course of kinetics in FIG. 6) was “no longer demonstrates a substrate inhibition” and the “Substrate inhibition Ki” value ([3]; in words, in comparison with the wild type) was “++eliminated”. For the same molecule, the “Vmax (DHCA), improvement” value [4] was “+6-fold better”, the “Substrate inhibition Ki” value ([4]; in words) was “+reduced” and the kcat [5] was 875.35.

In the case of NC(=O)c1ccc[n+]([C@@H]2O[C@H](COP(=O)([O-])OP(=O)(O)OC[C@H]3O[C@@H](n4cnc5c(N)ncnc54)[C@H](OP(=O)(O)O)[C@@H]3O)[C@@H](O)[C@H]2O)c1 [NADP^+], the Vmax [5] is listed as 30.58 U/mg Protein, the kcat [5] is listed as 944.95 and the kcat [6] is listed as 944.95.

B1: Collinsella aerofaciens 7β-HSDH (WT), with C-terminal His tag, SEQ ID NO:3 (Collinsella aerofaciens ATCC 25986) (protein)
chain: T1 sequence (A4ECA9 with tags, fused parts or gaps R64E) with E64R
With B1 the Km [7] was 15.2 ± 2.2 µM, the Vmax [7] was 8.8 µmol/min/mg and the Km [8] was 20.5 ± 2.9 µM. For the same molecule, the Vmax [8] was 8.7 µmol/min/mg.

B2: 7β-HSDH [G39S]: 7β-HSDH mutant which contains serine instead of glycine at position 39; His tag, SEQ ID NO:5 (protein)
chain: T1 sequence (A4ECA9 with tags, fused parts or gaps R64E) with G39S, E64R
modifications: His tag; 7-beta-HSDH G39S Mutant
In the case of B2, the Volumetric activity ([9]; text of example 3, position 39) is reported as 735 U/ml, the specific enzymatic activity ([9]; text of example 3, position 39, per mg protein) is reported as 52.9 U/mg and the Cofactor specificity [10] is reported as “NADPH”.

B3: 7β-HSDH [R64E]: 7β-HSDH mutant, arginine (R) in position 64 replaced by glutamic acid (E); His tag, SEQ ID NO:4 (protein)
chain: T1 sequence (A4ECA9 with tags, fused parts or gaps R64E)
modifications: His tag; 7-beta-HSDH R64E Mutant
For B3, the Specific activity [9, 11] was 60.2 U/mg, the Volumetric activity [9, 11] was 892.7 U/ml and the “activity compared with the wild-type enzyme” value ([9]; qualitative statement) was “increase in the specific activity”. The Cofactor specificity [10] was “NADPH”.

B4: 7β-HSDH [G39S/R64E]: 7β-HSDH dual mutant, positions 39 ([G39S]) and 64 ([R64E]) modified at the same time; His tag, SEQ ID NO:6 (protein)
chain: T1 sequence (A4ECA9 with tags, fused parts or gaps R64E) with G39S, E64R
modifications: His tag; 7-beta-HSDH G39S/R64E Mutant
With B4 the Specific activity [9, 12] was 57.5 U/mg, the Volumetric activity [9, 12] was 1115.0 U/ml and the Cofactor specificity [10] was “NADPH”.

B5: 7β-HSDH [T17F]: 7β-HSDH mutant, threonine at position 17 replaced by F (protein, UniProt A4ECA9 1-263, looked up, variant T17F)
7beta-hydroxysteroid …: MNLREKYGEWGLILGAFEGVGKAFCEKIAAGGMNVVMVGRREEKLNVLAGEIRETYGVETKVVRADFSQPGAAETVFAATEGLDMGFMSYVACLHSFGKIQDTPWEKHEAMINVNVVTFLKCFHHYMRIFAAQDRGAVINVSSMTGISSSPWNGQYGAGKAFILKMTEAVACECEGTGVDVEVITLGTTLTPSLLSNLPGGPQGEAVMKIALTPEECVDEAFEKLGKELSVIAGQRNKDSVHDWKANHTEDEYIRYMGSFYRD
With B5 the Specific activity [9, 13] was 46.1 U/mg, the Volumetric activity [9, 13] was 645.2 U/ml and the Cofactor specificity [10] was “NADPH/low”.

Source: patent US10358672B2, “7-β-hydroxysteroid dehydrogenase mutants and process for the preparation of ursodeoxycholic acid” (Pharmazell GmbH, priority 2014, dated 2019)
